Test results published in article PMC7452893 (Nature Communications, 2020).
Where a chain is given by its changes, count along the chain named.

B1: MD62 (antibody, V domains shown)
VH: EVQLVQSGGGLIQPGGSLRLSCAASGVTVSSNYMTWVRQAPGKGLEWVSLIYSGGSTYYADSVKGRFTISRDNSKNTLYLQMNSLRAEDTAVYYCARDLQYYGMDVWGQGTMVTVSS
VL: AIRMTQSPSSVSASVGDRVTITCRASQDIGSWLGWYQQKPGKAPKLLIYAASSLAGGVPSRFSGSGSGTDFTLTISSLQPEDFATYYCQQANSFPLTFGGGTKLEIK
notes: scFv-Fc format; also called MD62 scFv-Fc
B2: MD67 (antibody, V domains shown)
VH: EVQLVESGGGLVQPGGSLRLSCAASGFTVSSNYMTWVRQAPGKGLEWVSVIYSGGSTFYADSVKGRFTISRHNSKNTLYLQMNSLRAEDTAVYYCARDLSVRGGMDVWGQGTTVTVSS
VL: not shown
notes: scFv-Fc format; also called MD67 scFv-Fc
B3: MD17 (antibody, V domains shown)
VH: EVQLLESGGGLVQPGGSLRLSCSASGFTFSTYVMNWVRQAPGKGLEHVSGISSDGGITYYADSVKGRFTISRDNSKNTLYLQMSSLRVEDTAVYYCVKDQDSSSWYDAFDIWGQGTMVTVSS
VL: DIVMTQSPSSLSASVGDRVTITCRASQSISNYLNWYQQKLGKAPKLLTYAASRLQSGVPSRFSASGSGTEFTLTISSLQPEDFATYYCQQSYTTPLTFGGGTKLEIK
notes: scFv-Fc format; also called MD17 scFv-Fc
B4: MD29 (antibody, V domains shown)
VH: B3 VH with E1Q, V2M, L5V, E6Q, L45P
VL: NIRLTQSPSSLSASVGDRVTITCRATQSISSYLNWYQQKPGKAPNLLIYAASSLQSGVPSRFSGSGSGTDFTLTISSLQPEDFATYYCHQTYTSPYTFGQGTKLEIK
notes: scFv-Fc format; also called MD29 scFv-Fc
B5: MD47 (antibody, V domains shown)
V domain 1: QMQLVQSGGGLVQPGGSLRLSCAASGFTFSSYAMSWVRQAPGKGLEWVSAISSGGSTYYADSVKGRFTISRDNSKNTLYLQMNSLRAEDTAVYYCAKDLVTAPSYEAFDIWGQGTMITVSS
V domain 2: NFMLTQPPSVSVAPGKTARITCGGNNIGSKSVHWYQQKPGQAPVLVIYYDSDRPSGIPERFSGSNSGNTATLTISRVEAGDEADYYCQVWDSSSHHHVVFGGGTKGTVL
notes: scFv-Fc format; also called MD47 scFv-Fc

Key:
Settings in all cases: both partners purified
[1] = target: T1, SARS-CoV-2 spike glycoprotein, soluble (amino acids 1-1207) (SARS-CoV-2, Wuhan-Hu-1 (QHD43416), UniProt P0DTC2, proline substitution at position 986 | proline substitution at position 987 | …); assay: ELISA; direct ELISA; plates coated with 2 μg/ml recombinant spike, S1, RBD or NTD; scFv-Fc detected with AP-conjugated anti-human IgG; specificity panel (Fig. 1c)
T1 construct: also called spike protein

[2] = target: T2, SARS-CoV-2 spike receptor-binding domain (RBD), monomeric (SARS-CoV-2, UniProt P0DTC2); assay: BLI; Octet; biotinylated scFv-Fc on streptavidin sensors; increasing concentrations of monomeric RBD, 300 s association, 600 s dissociation; 30 °C; 1:1 binding model
T2 construct: Called monomeric RBD in the BLI methods; Amino acids 1-15 are probably removed on secretion (surmise); also called monomeric RBD

[3] = target: T2, SARS-CoV-2 spike receptor-binding …; assay: ELISA; direct ELISA; plates coated with 2 μg/ml recombinant spike, S1, RBD or NTD; scFv-Fc detected with AP-conjugated anti-human IgG; specificity panel (Fig. 1c)

Row | Binder | binding result [1] | Kd [2] [nM] | binding result [3]
1 | B1 | binds | – | –
2 | B2 | – | 0.4 to 5.8 | –
3 | B3 | binds | – | –
4 | B4 | binds | 0.4 to 5.8 | –
5 | B5 | – | – | binds
